Test results published in publication PMC3364176.

Biological target: bovine brain microtubules (bovine) (UniProt Q6B856)
Assay: co-sedimentation

Kd: 1000 to 2000 nM
B1: GST-CSAP (glutathione S-transferase fusion with full-length centriole and spindle-associated protein) (natural protein)
chain: MSPGSGVKSEYMKRYQEPRWEEYGPCYRELLHYRLGRRLLEQAHAPWLWDDWGPAGSSEDSASSESSGAGGPAPRCAPPSPPPPVEPATQEEAERRARGAPEEQDAEAGDAEAEDAEDAALPALPVKDVEDKPEQQTRTRETDKSPTSTEPRQQPSALFARGNRKAVKSPQRSSSKIKENKHPFALYGWGEKQTDTGSQKTHNVCASAPVHEIHESALRAKNRRQVEKRKLVAQRQRAHSVDVEKNRKMKASSSENPWMTEYMRCYSARA
